The results in this text go back to patent US20230057987A1 (published 2023).

Assay [1] addresses T1, CT45 (CT45A1, A2, A3, A5 to A10); CT45-IP peptide on HLA-A*02:01 (human).
T1 peptide: KIFEMLEGV
Put plainly: luciferase release, 24 h, 1:1; CD8+ T cells with TCR mRNA, T2 cells with titrated peptide; full-length, on cells.

Assay [2] deals with T2, similar peptide SP-05-0006, source protein not stated peptide on HLA-A*02:01 (human).
T2 peptide: KIAELLENV
Put plainly: killing.

Assay [3] concerns the target T3, similar peptide SP-05-0003, source protein not stated peptide on HLA-A*02:01 (human).
T3 peptide: KVTEMLVNV
Put plainly: killing.

Assay [4] concerns the target T4, CT45-IP alanine variant, position 1 peptide on HLA-A*02:01 (human).
T4 peptide: AIFEMLEGV
Put plainly: killing.

For assay [5], the target named is T5, similar peptide SP-05-0010, source protein not stated peptide on HLA-A*02:01 (human).
T5 peptide: RIFETVNSV
Put plainly: killing.

Assay [6] concerns the target T6, similar peptide SP-05-0009, source protein not stated peptide on HLA-A*02:01 (human).
T6 peptide: KIIDLLPKV
Put plainly: killing.

The target of assay [7] is T7, similar peptide SP-05-0002, source protein not stated peptide on HLA-A*02:01 (human).
T7 peptide: KIFSGLLKV
Put plainly: killing.

Assay [8] addresses T8, similar peptide SP-05-0008, source protein not stated peptide on HLA-A*02:01 (human).
T8 peptide: KILDELEKV
Nature of the assay: killing.

For assay [9], the target named is T9, CT45-IP alanine variant, position 5 peptide on HLA-A*02:01 (human).
T9 peptide: KIFEALEGV
Nature of the assay: killing.

Assay [10] deals with T10, similar peptide SP-05-0004, source protein not stated peptide on HLA-A*02:01 (human).
T10 peptide: KIWEWLVGV
Put plainly: killing.

In assay [11] the target is T11, CT45-IP alanine variant, position 8 peptide on HLA-A*02:01 (human).
T11 peptide: KIFEMLEAV
Nature of the assay: killing.

The target in assay [12] is T12, similar peptide SP-05-0005, source protein not stated peptide on HLA-A*02:01 (human).
T12 peptide: KIEEFLEAV
Put plainly: killing.

The target in assay [13] is T13, similar peptide SP-05-0001, source protein not stated peptide on HLA-A*02:01 (human).
T13 peptide: HIMEHLEGV
Put plainly: killing.

Assay [14] concerns the target T14, similar peptide SP-05-0007, source protein not stated peptide on HLA-A*02:01 (human).
T14 peptide: KIFPALCTV
Nature of the assay: killing.

In assay [15] the target is CT45-IP-HLA-A*02 dextramer (human). Nature of the assay: flow cytometry, dextramer staining of TCR-mRNA electroporated T cells, gated on CD3+. Background: In flow cytometry, cells or beads pass a laser one at a time.
Assay [16] deals with CT45-IP antigenic peptide (…) in complex with HLA-A*02 presented on cells (peptide-loaded T2 cells; NCIH1703 and A375 tumor cells) (human). Nature of the assay: cell-based or functional assay.
Assay [17] deals with T1, CT45 (CT45A1, A2, A3, A5 to A10); …. Put plainly: CT45-IP-HLA-A*02 dextramer on T cells with TCR mRNA; TCR found by tetramer sorting; full-length, on cells.
For assay [18], the target named is T15, CT45-IP alanine variant, position 4 peptide on HLA-A*02:01 (human).
T15 peptide: KIFAMLEGV
Nature of the assay: killing.

The target of assay [19] is T16, CT45-IP alanine variant, position 7 peptide on HLA-A*02:01 (human).
T16 peptide: KIFEMLAGV
Nature of the assay: killing.

Assay [20] has as its target T17, CT45-IP alanine variant, position 3 peptide on HLA-A*02:01 (human).
T17 peptide: KIAEMLEGV
Nature of the assay: killing.

“And” between values parts separate entries of the source, which are not always exact repeats. Equal entries are not always repeated.

B1: TCR-12 (TCR, V domains shown)
Valpha: QLLEQSPQFLSIQEGENLTVYCNSSSVFSSLQWYRQEPGEGPVLLVTVVTGGEVKKLKRLTFQFGDARKDSSLHITAAQPGDTGLYLCAGGLSDSYDKVIFGPGTSLSVIP
Vbeta: EVTQTPKHLVMGMTNKKSLKCEQHMGHRAMYWYKQKAKKPPELMFVYSYEKLSINESVPSRFSPECPNSSLLNLHLHALQPEDSALYLCASSQGVGQEYGYTFGSGTRLTVV
Molecule B1 showed an EC50 of peptide in [1] of 47.5 nM. Further, the binding result in assay [2] is reported as “no recognition”; in assay [3] it was “no recognition”; in assay [4] it was “recognises”; in assay [5], “no recognition”; in assay [6], “no recognition”; in [7], “no recognition”. Moreover, the binding result is on record as “no recognition” in [8]; “recognises” in assay [9]; “no recognition” in assay [10]; “recognises” in assay [11]; “no recognition” in [12]; “no recognition” in assay [13]. In addition, the binding result in assay [14] is recorded as “no recognition”. In assay [15], the surface expression, % positive events by CT45-IP-HLA-A2*02 dextramer staining was found to be 20.1%. Besides, the EC50, half maximal killing capacity (functional avidity; CT45-IP peptide titration on T2 cells, luciferase release) in assay [16] was 47.5 nM. The dextramer-positive events in assay [17] came to 20.1%.

B2: TCR-5 (TCR, V domains shown)
Valpha: QQLNQSPQSMFIQEGEDVSMNCTSSSIFNTWLWYKQDPGEGPVLLIALYKAGELTSNGRLTAQFGITRKDSFLNISASIPSDVGIYFCAGGYNYGQNFVFGPGTRLSVLP
Vbeta: GVTQTPKHLITATGQRVTLRCSPRSGDLSVYWYQQSLDQGLQFLIQYYNGEERAKGNILERFSAQQFPDLHSELNLSSLELGDSALYFCASSAGLAGGYEQYFGPGTRLTVT
Molecule B2 returned an EC50 of peptide in assay [1] of 1.32 nM. For the same molecule, the binding result in [2] is listed as “no recognition”; in assay [3] it was “no recognition”; in [4], “recognises”; in assay [5], “no recognition”; in assay [6] it was “no recognition”; in assay [7], “no recognition”. Also, the binding result in assay [8] is on record as “no recognition”; in [9] it was “recognises”; in assay [10], “no recognition”; in assay [12], “no recognition”; in [13], “no recognition”; in [18] it was “recognises”. Besides, the binding result in assay [14] is reported as “no recognition”. For the same molecule, the surface expression, % positive events by CT45-IP-HLA-A2*02 dextramer staining in assay [15] was 55.5% and 61.1%. Also, the EC50, half maximal killing capacity (functional avidity; CT45-IP peptide titration on T2 cells, luciferase release) in [16] was 1.32 nM. In assay [17], this molecule returned a dextramer-positive events of 61.1%.

B3: TCR-4 (TCR, V domains shown)
Valpha: QSVAQPEDQVNVAEGNPLTVKCTYSVSGNPYLFWYVQYPNRGLQFLLKYITGDNLVKGSYGFEAEFNKSQTSFHLKKPSALVSDSALYFCAAPRDDKIIFGKGTRLHILP
Vbeta: GVTQTPKFRVLKTGQSMTLLCAQDMNHEYMYWYRQDPGMGLRLIHYSVGEGTTAKGEVPDGYNVSRLKKQNFLLGLESAAPSQTSVYFCASSYLRTGGNEQFFGPGTRLTVL
For the molecule B3, in assay [1], the EC50 of peptide worked out at 1.31 nM. The binding result in assay [2] is on record as “no recognition”; in assay [3], “no recognition”; in [4] it was “recognises”; in assay [5] it was “no recognition”; in assay [6] it was “no recognition”; in [7] it was “no recognition”. The binding result in [8] was “no recognition”; in [9], “recognises”; in [10], “no recognition”; in assay [12], “no recognition”; in assay [13], “no recognition”; in assay [14], “no recognition”. Besides, the surface expression, % positive events by CT45-IP-HLA-A2*02 dextramer staining in assay [15] came out at 39.1%. The EC50, half maximal killing capacity (functional avidity; CT45-IP peptide titration on T2 cells, luciferase release) in assay [16] amounted to 1.31 nM. Besides, the dextramer-positive events in assay [17] was found to be 39.1%.

B4: TCR-11 (TCR, V domains shown)
Valpha: IQVEQSPPDLILQEGANSTLRCNFSDSVNNLQWFHQNPWGQLINLFYIPSGTKQNGRLSATTVATERYSLLYISSSQTTDSGVYFCAVNTGTASKLTFGTGTRLQVTL
Vbeta: GVTQTPKFQVLKTGQSMTLQCAQDMNHNSMYWYRQDPGMGLRLIYYSASEGTTDKGEVPNGYNVSRLNKREFSLRLESAAPSQTSVYFCASSPRGQGRSYEQYFGPGTRLTVT
B4 returned an EC50 of peptide in [1] of 59.5 nM. Moreover, the binding result in assay [2] is “no recognition”; in assay [3], “no recognition”; in [19], “recognises”; in assay [5] it was “no recognition”; in [6], “no recognition”; in [7], “no recognition”. For the same molecule, the binding result in assay [8], in [10], in assay [12], in [13] and in [14] was “no recognition” in each case. In addition, the surface expression, % positive events by CT45-IP-HLA-A2*02 dextramer staining in [15] was 0.53% and 6.6%. The molecule also had an EC50, half maximal killing capacity (functional avidity; CT45-IP peptide titration on T2 cells, luciferase release) in [16] of 59.5 nM. The dextramer-positive events in [17] turned out to be 6.6%.

B5: TCR-7 (TCR, V domains shown)
Valpha: QTVTQSQPEMSVQEAETVTLSCTYDTSESDYYLFWYKQPPSRQMILVIRQEAYKQQNATENRFSVNFQKAAKSFSLKISDSQLGDAAMYFCTFRYGGATNKLIFGTGTLLAVQP
Vbeta: GVIQSPRHLIKEKRETATLKCYPIPRHDTVYWYQQGPGQDPQFLISFYEKMQSDKGSIPDRFSAQQFSDYHSELNMSSLELGDSALYFCASRGGWAETPDTQYFGPGTRLTVL
With B5, the EC50 of peptide in assay [1] came out at 0.48 nM. For the same molecule, the binding result in assay [2] is “no recognition”; in assay [3] it was “no recognition”; in [20] it was “recognises”; in assay [5] it was “no recognition”; in [6], “no recognition”; in [7], “no recognition”. Besides, the binding result in [8] is on record as “no recognition”; in assay [9], “recognises”; in assay [10], “no recognition”; in assay [11], “recognises”; in assay [12], “no recognition”; in assay [13] it was “no recognition”. For the same molecule, in [14], the binding result is reported as “no recognition”. The surface expression, % positive events by CT45-IP-HLA-A2*02 dextramer staining in assay [15] was found to be 53.3%. In [16], this molecule came in with an EC50, half maximal killing capacity (functional avidity; CT45-IP peptide titration on T2 cells, luciferase release) of 0.48 nM. The dextramer-positive events in assay [17] was 53.3%.

B6: TCR-6 (TCR, V domains shown)
Valpha: QKEVEQDPGPLSVPEGAIVSLNCTYSNSAFQYFMWYRQYSRKGPELLMYTYSSGNKEDGRFTAQVDKSSKYISLFIRDSQPSDSATYLCAMSGNSGARDYGNNRLAFGKGNQVVVIP
Vbeta: EVTQTPKHLVMGMTNKKSLKCEQHMGHRAMYWYKQKAKKPPELMFVYSYEKLSINESVPSRFSPECPNSSLLNLHLHALQPEDSALYLCASATWEEAGPYNEQFFGPGTRLTVL
In assay [1], B6 had an EC50 of peptide of 3.25 nM. In addition, the binding result in [2] is on record as “no recognition”; in assay [3] it was “no recognition”; in assay [19], “recognises”; in assay [5], “no recognition”; in assay [6] it was “no recognition”; in assay [7] it was “no recognition”. The binding result in assay [8] is recorded as “no recognition”; in assay [9], “recognises”; in assay [11], “recognises”; in assay [12] it was “no recognition”; in assay [13], “no recognition”; in assay [14], “no recognition”. The molecule also registered a surface expression, % positive events by CT45-IP-HLA-A2*02 dextramer staining in assay [15] of 2.9%. This molecule showed an EC50, half maximal killing capacity (functional avidity; CT45-IP peptide titration on T2 cells, luciferase release) in assay [16] of 3.25 nM. Further, the dextramer-positive events in [17] worked out at 2.9%.
